Test results: patent publication US20230348572A1

Molecular target: RBD (amino acids 340-538 NITN.GPKK) expressed on the surface of MDCK-SIAT1 cells (SARS-CoV-2) (UniProt P0DTC2)

In the case of H11-D4-Fc (Fc fusion), the IC50 is reported as 28 nM.
